# Laboratory results from US9029505B2, “Modified vasoactive intestinal peptides” (Phasebio Pharmaceuticals, Inc., priority 2009, dated 2015).
# No end group written: not given here. ELP1‑120 = 120 ELP1 units (VPGXG) fused at the C-terminus
# T1: human Vasoactive Intestinal Peptide Receptor 2 (VPAC2) (Homo sapiens, UniProt P41587)
# T1 construct: expressed in transfected cells; host or cells: Chinese Hamster Ovary (CHO) cells
# T1 sequence (P41587 24-438): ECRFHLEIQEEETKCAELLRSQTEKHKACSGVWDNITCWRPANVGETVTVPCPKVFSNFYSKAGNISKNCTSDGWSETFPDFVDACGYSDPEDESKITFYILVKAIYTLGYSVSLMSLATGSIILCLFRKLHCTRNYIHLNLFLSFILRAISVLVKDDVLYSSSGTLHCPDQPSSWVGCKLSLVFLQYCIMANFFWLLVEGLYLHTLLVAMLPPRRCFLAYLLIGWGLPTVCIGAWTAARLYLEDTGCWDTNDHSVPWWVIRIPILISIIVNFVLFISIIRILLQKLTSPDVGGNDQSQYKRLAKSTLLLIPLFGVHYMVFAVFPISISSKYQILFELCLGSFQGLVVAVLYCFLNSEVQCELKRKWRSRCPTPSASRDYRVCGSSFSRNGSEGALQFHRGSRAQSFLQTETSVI
# T2: human Vasoactive Intestinal Peptide Receptor 1 (VPAC1) (Homo sapiens, UniProt P32241)
# T2 construct: expressed in transfected cells; host or cells: Chinese Hamster Ovary (CHO) cells
# T2 sequence (P32241 31-457): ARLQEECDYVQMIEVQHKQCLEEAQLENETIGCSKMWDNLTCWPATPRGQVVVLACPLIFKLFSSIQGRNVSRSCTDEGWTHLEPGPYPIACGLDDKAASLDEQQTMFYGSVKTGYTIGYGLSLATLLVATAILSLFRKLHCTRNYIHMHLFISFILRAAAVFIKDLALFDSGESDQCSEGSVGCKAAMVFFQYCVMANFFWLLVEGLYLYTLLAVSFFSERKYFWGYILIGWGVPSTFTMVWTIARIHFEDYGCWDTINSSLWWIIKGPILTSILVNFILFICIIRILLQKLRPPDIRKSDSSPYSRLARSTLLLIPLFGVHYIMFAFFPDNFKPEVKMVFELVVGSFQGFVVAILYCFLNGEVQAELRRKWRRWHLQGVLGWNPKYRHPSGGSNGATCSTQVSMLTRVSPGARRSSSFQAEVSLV
# B1: PB1120: VIP-ELP1-120 fusion peptide encoded by pPB1120 (protein)
# chain: HSDAVFTDNYTRLRKQMAVKKYLNSILNVPGVGVPGVGVPGGGVPGAGVPGVGVPGVGVPGVGVPGGGVPGAGVPGGGVPGVGVPGVGVPGGGVPGAGVPGVGVPGVGVPGVGVPGGGVPGAGVPGGGVPGVGVPGVGVPGGGVPGAGVPGVGVPGVGVPGVGVPGGGVPGAGVPGGGVPGVGVPGVGVPGGGVPGAGVPGVGVPGVGVPGVGVPGGGVPGAGVPGGGVPGVGVPGVGVPGGGVPGAGVPGVGVPGVGVPGVGVPGGGVPGAGVPGGGVPGVGVPGVGVPGGGVPGAGVPGVGVPGVGVPGVGVPGGGVPGAGVPGGGVPGVGVPGVGVPGGGVPGAGVPGVGVPGVGVPGVGVPGGGVPGAGVPGGGVPGVGVPGVGVPGGGVPGAGVPGVGVPGVGVPGVGVPGGGVPGAGVPGGGVPGVGVPGVGVPGGGVPGAGVPGVGVPGVGVPGVGVPGGGVPGAGVPGGGVPGVGVPGVGVPGGGVPGAGVPGVGVPGVGVPGVGVPGGGVPGAGVPGGGVPGVGVPGVGVPGGGVPGAGVPGVGVPGVGVPGVGVPGGGVPGAGVPGGGVPGVGVPGVGVPGGGVPGAGVPGVGVPGVGVPGVGVPGGGVPGAGVPGGGVPGWP
# modifications: VIP ELP1-120
# notes: VIP-ELP1-120 fusion peptide encoded by pPB1120
# Key:
# [1] = target: T1, human Vasoactive Intestinal Peptide Receptor 2 (VPAC2); experiment: cell-based cAMP bioassay in CHO cells expressing VPAC2; conditions: for activity compared with native VIP protein for VPAC2 receptor (cAMP produced): CHO cells expressing VPAC2, 30 minute incubation, FIG. 8, PB1047 DPP-IV treated before addition
# Description: (§1) To measure the in vitro biological activity and potency of VIP or VIP-ELP fusion proteins, a cell-based bioassay was used. The assay measures the increase in intracellular cyclic adenosine monophosphate (cAMP) concentration in response to treatment with VIP or VIP-ELP fusion proteins in Chinese Hamster Ovary (CHO) cells that have been engineered to express either the human Vasoactive Intestinal Peptide Receptor 2 (VPAC2) or the human Vasoactive Intestinal Peptide Receptor 1 (VPAC1). […] Since the amount of cAMP accumulation in cells after receptor-mediated ligand binding and activation is directly proportional to the amount of intact peptide or fusion protein present, the assay can be used to determine bioactivity and relative potency.
# In this example, the activity of VIP-ELP fusion proteins PB1046 and PB1047 was tested. Construct PB1046 contains VIP with a Met at the N-terminus and construct PB1047 contains VIP with Ala-Ala at its N-terminus. Both constructs have ELP (1-120) at their C-terminus. In the first experiment, the activity of the constructs was tested using CHO cells expressing the VIP receptor VPAC2. After 30 minute incubations of various concentrations of the fusion proteins with the cell, the cells were lysed and the amount of cAMP produced was measured using a commercial kit. PB1047 was DPP-IV treated prior to the addition to the cells.
# FIG. 13 illustrates the activity of PB1120 for the VPAC2 receptor. Like the results seen for the VPAC1 receptor, PB1120 show slightly less activity (˜1.5 fold less) than the native VIP peptide for VPAC2. However, in contrast to the results seen with VPAC1. PB1046 was equipotent for VPAC2 as compared to the native peptide.
# [2] = target: T2, human Vasoactive Intestinal Peptide Receptor 1 (VPAC1); experiment: cell-based cAMP bioassay in CHO cells expressing VPAC1; conditions: for activity compared with native VIP protein for VPAC1 receptor (cAMP produced): CHO cells expressing VPAC1, 30 minute incubation, FIG. 9, PB1047 DPP-IV treated before addition; for fold less active than the native VIP peptide on the VPAC1 receptor: FIG. 12
# Description: as §1
# The activity of PB1046 and PB1047 was also tested using CHO cells expressing the VIP receptor VPAC1. After 30 minute incubations of various concentrations of the fusion proteins with CHO cells, cells were lysed and the amount of cAMP produced was measured using a commercial kit. PB1047 was DPP-IV treated prior to the addition to the cells.
# The activity of the PB1120 fusion peptide was tested in vitro. The activity was tested using an assay utilizing CHO cells expressing VIP receptor (VPAC1) as described above in Example 3.
# [3] = tested on: Spontaneously hypertensive rats; experiment: blood pressure effect in spontaneously hypertensive rats; type: in vivo, rat; conditions: 10 mg/kg subcutaneous
# Method: The activity of the modified VIP-ELP fusion protein PB1047 was also tested in vivo. Specifically, effects of VIP-ELP fusion protein on blood pressure were tested. Spontaneously hypertensive rats were treated subcutaneous with PB1047 (10 mg/kg) or buffer control and their blood pressures were measured at several points after administration of the fusion protein. Five animals were used for each group and the graphs show the average and the standard deviation.
# DPP IV = DPP IV (Homo sapiens, UniProt P27487); experiment: DPP IV treatment of the fusion protein; type: biochemical; conditions: removal of both AA and HS from the N-terminus
# DPP IV, sequence (P27487 whole entry, species assumed, the tested form may be a part): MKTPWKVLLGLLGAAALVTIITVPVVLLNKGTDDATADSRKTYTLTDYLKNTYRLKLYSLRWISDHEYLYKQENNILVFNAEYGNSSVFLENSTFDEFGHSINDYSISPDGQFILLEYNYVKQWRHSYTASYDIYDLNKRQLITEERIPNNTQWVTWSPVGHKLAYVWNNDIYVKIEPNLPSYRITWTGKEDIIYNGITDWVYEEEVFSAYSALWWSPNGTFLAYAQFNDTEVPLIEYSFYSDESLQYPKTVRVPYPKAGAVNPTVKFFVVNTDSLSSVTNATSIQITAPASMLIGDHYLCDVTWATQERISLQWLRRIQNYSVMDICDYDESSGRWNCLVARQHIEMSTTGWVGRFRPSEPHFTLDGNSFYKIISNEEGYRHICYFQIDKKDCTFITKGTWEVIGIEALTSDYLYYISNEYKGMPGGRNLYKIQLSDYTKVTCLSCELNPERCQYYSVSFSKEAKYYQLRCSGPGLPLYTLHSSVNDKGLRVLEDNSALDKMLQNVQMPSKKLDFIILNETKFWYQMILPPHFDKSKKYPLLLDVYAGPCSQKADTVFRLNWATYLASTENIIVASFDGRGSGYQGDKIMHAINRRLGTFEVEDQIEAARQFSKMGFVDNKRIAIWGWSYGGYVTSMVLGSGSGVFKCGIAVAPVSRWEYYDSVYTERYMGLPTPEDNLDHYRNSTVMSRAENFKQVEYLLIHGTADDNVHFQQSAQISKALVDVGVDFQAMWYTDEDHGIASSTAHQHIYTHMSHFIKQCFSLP
# Description: Plasmid pPB1064 was therefore constructed, where the N-terminus was changed to MAAHG, SEQ ID NO: 45, instead of MAAHS, SEQ ID NO: 46, because HG is more resistant to DPP IV than HS.
# [4] = Domschke 1978, Burhol 1978; cited from earlier work
# rats = experiment: effects on systolic, diastolic and mean arterial blood pressure in rats; type: in vivo, rat; conditions: 9 hrs post-injection
# Method: To measure the effects of the modified VIP-ELP fusion protein PB1120 on systolic, diastolic, and mean arterial blood pressure, rats were given single, subcutaneous injections of 0.1 mg/kg, 1 mg/kg, or 5 mg/kg of PB1120 and evaluated over 3-hr intervals. FIGS. 15A, 15B, and 15C show the average change in systolic, diastolic, and mean arterial pressure, respectively.
# [5] = pharmacokinetic profile in monkeys after single SC injection; type: in vivo, monkey; conditions: single SC 3 mg/kg, to day 4
# Method: In addition to the biological potency assays described above, the pharmacokinetic profile of the VIP-ELP fusion protein PB1120 was also examined. Monkeys were given single subcutaneous (SC) injections (dosed at 3 mg/kg) of PB1120 and plasma drug concentrations were measured daily over the course of one week. Three animals were used and the graphs show the average and the standard deviation.
molecule,measurement,setting,value
PB1046: VIP-ELP fusion protein with Met at the N-terminus and ELP1-120 at the C-terminus (SEQ ID NO. 17; FIG. 1 SEQ ID NO: 14) (MHSDAVFTDNYTRLRKQMAVKKYLNSILN-{ELP1‑120}; also: recombinant VIP-ELP fusion),activity compared with native VIP protein for VPAC2 receptor (cAMP produced),[1],somewhat more active than native VIP protein
same,potency for VPAC2 compared to the native peptide,[1]; FIG. 13,equipotent
same,receptor selectivity VPAC2 over VPAC1,[1]; comparison of FIG. 8 and FIG. 9,selectively activates VPAC2 receptor over VPAC1 receptor
same,activity compared with native VIP protein for VPAC1 receptor (cAMP produced),[2],much less active than native VIP protein
same,fold less active than the native VIP peptide on the VPAC1 receptor,[2],approximately 11 fold
"PB1047: VIP-ELP fusion with tripeptide MAA encoded at N-terminus (Ala-Ala after Met removal), ELP1-120 at C-terminus (SEQ ID 18) (MAAHSDAVFTDNYTRLRKQMAVKKYLNSILN-{ELP1‑120}; also: recombinant fusion with ELP1-120 at C-terminus)",activity compared with native VIP protein for VPAC2 receptor (cAMP produced),[1],less active
same,duration of blood pressure reduction post administration,[3]; systolic and diastolic,at least 12 hours
same,diastolic blood pressure,"[3]; vs buffer control, FIG. 10",significantly reduced
same,systolic blood pressure,"[3]; vs buffer control, FIG. 10",significantly reduced
same,effect of DPP IV treatment on the peptide,DPP IV,inactivation of the peptide
same,activity compared with native VIP protein for VPAC1 receptor (cAMP produced),[2],about the same as it was in the test for VPAC2 receptor
Vasoactive intestinal peptide [VIP],half-life in blood,[4],less than 2 minutes
B1,diastolic pressure,rats; 1 mg/kg SC,significant reductions
same,mean arterial pressure,rats; 1 mg/kg SC,significant reductions
same,systolic pressure,rats; 1 mg/kg SC,significant reductions
same,diastolic pressure,rats; 5 mg/kg SC,significant reductions
same,mean arterial pressure,rats; 5 mg/kg SC,significant reductions
same,systolic pressure,rats; 5 mg/kg SC,significant reductions
same,portion of initial dose remaining in the circulation,[5],More than half
same,fold less activity than the native VIP peptide for VPAC2,[1]; FIG. 13,~1.5 fold
same,fold less active than the native VIP peptide on the VPAC1 receptor,[2],approximately 1.4 fold
